Reference: US20050130130A1 (INSTITUT NATIONAL DE LA SANTE ET DE LA RECHERCHE MEDICALE …, published 2005)

Biological target: T1, p50.2 KAR (human, UniProt P43631 22-304)
T1 construct: whole, on cells; also called KAR of D.F. NK cells; KAR p50.2
Test: anti-CD158 immunoprecipitation from NK cell lysates, immunotransfer with anti-FcεRIγ

T1 sequence (P43631 22-304): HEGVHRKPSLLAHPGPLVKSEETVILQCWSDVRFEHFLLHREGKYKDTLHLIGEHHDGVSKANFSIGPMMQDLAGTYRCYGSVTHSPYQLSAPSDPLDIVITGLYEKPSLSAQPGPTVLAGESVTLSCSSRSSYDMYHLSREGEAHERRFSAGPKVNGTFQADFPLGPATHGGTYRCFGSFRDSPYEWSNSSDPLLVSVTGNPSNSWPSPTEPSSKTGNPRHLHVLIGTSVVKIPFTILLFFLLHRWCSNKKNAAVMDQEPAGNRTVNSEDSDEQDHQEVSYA

- binding result: no binding
B1: FcεRIγ (other, human, UniProt P30273 19-86, looked up)
chain: LGEPQLCYILDAILFLYGIVLTLLYCRLKIQVRKAAITSYEKSDGVYTGLSTRNQETYETLKHEKPPQ
notes: whole, on cells; Endogenous protein in NK cell lysates; also called FcεRI gamma
